Measured values: IntAct's records for PubMed 10398681

B1: Protein TRANSPORT INHIBITOR RESPONSE 1 (Arabidopsis thaliana (Mouse-ear cress)), Q570C0 (parent)
chain: MQKRIALSFPEEVLEHVFSFIQLDKDRNSVSLVCKSWYEIERWCRRKVFIGNCYAVSPATVIRRFPKVRSVELKGKPHFADFNLVPDGWGGYVYPWIEAMSSSYTWLEEIRLKRMVVTDDCLELIAKSFKNFKVLVLSSCEGFSTDGLAAIAATCRNLKELDLRESDVDDVSGHWLSHFPDTYTSLVSLNISCLASEVSFSALERLVTRCPNLKSLKLNRAVPLEKLATLLQRAPQLEELGTGGYTAEVRPDVYSGLSVALSGCKELRCLSGFWDAVPAYLPAVYSVCSRLTTLNLSYATVQSYDLVKLLCQCPKLQRLWVLDYIEDAGLEVLASTCKDLRELRVFPSEPFVMEPNVALTEQGLVSVSMGCPKLESVLYFCRQMTNAALITIARNRPNMTRFRLCIIEPKAPDYLTLEPLDIGFGAIVEHCKDLRRLSLSGLLTDKVFEYIGTYAKKMEMLSVAFAGDSDLGMHHVLSGCDSLRKLEIRDCPFGDKALLANASKLETMRSLWMSSCSVSFGACKLLGQKMPKLNVEVIDERGAPDSRPESCPVERVFIYRTVAGPRFDMPGFVWNMDQDSTMRFSRQIITTNGL

Variants of: B1
Conditions: with skp1b_arath SKP1B

Row | Variant | effect of a mutation on the interaction
1 | P10A | decreasing interaction
